Measured values as given in the supplement of paper PMC9170038.

Test system: MS2 coat protein
Experiment: apparent KD of MS2 coat protein; designed switch direction (-1 OFF switch, 1 ON switch): 1; higher = weaker reporter binding
In short: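 The apparent KD reported per design is the median over clusters of curve fits to normalised cluster fluorescence. The RNA switches were transcribed on Illumina chips by stalled E. coli RNA polymerase. SNAP-549-labelled MS2 coat protein was titrated from 0.7 or 1.5 nM, doubling up to 3 µM, in Tris-HCl pH 7.5 buffer containing KCl, MgCl2, BSA, DTT, tRNA and Tween-20, with no input, 200 uM small-molecule ligand, or an oligonucleotide input.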

[1] = Eterna round: R95, input ligand: FMN 200 uM
[2] = Eterna round: R95, input ligand: microRNA oligo, concentration not stated
[3] = Eterna round: R95, input ligand: none
[4] = input ligand: microRNA oligo, concentration not stated

Row | Sequence | apparent KD of MS2 coat protein [1] [nM] | apparent KD of MS2 coat protein [2] [nM] | apparent KD of MS2 coat protein [3] [nM] | apparent KD of MS2 coat protein (input ligand: FMN 200 uM) [nM] | apparent KD of MS2 coat protein [4] [nM] | apparent KD of MS2 coat protein (input ligand: none) [nM]
1 | AGAGCCGGCACCGAGGAUAUUCAUAUUAAAACAUGAGGAUCACCCAUGUAGGCCAGAAGGCCUUGGGAGAAGGCGGAUCGGCUCG [Xeonanis - 7] (puzzle: Same State 2) | 28.3 | 524 | 827 |  |  | 
2 | GGUCGGACUCACAUGAGGAUCACCCAUGUUGCGGAAACGCAGCAGGAUAUCUGUCCGAAAAGGUCAGAGAAGGGCUAACCGACC [Fiskers NG3ss - 57] (Eterna round: R96, puzzle: Same State NG 3) |  |  |  | 197 | 596 | 1310
3 | AAAAAACAUGAGGAUCACCCAUGUCAAAAGACAUGAGGAUAUGUACAGACUUCGGUCUGUACAGAAGGCAUGAAAA [SS1 - 1011] (Eterna round: R96, puzzle: Same State 1) |  |  |  |  | 359 | 
4 | GGCUAUCGCGUACGAUAGCUGAAGCGUGUACAUGAGGAUCACCCAUGUCAUGUACAAGCUUUUUGCUCGUCUUAUUG [JL-shm-2.33 JL mod] (puzzle: Sensor for hsa-mir-208a) | 155 | 18.2 | 328 |  |  | 
5 | GGAGUCGGCACUGAGGAUAUUCAUAUUUAAACAUGAGGAUCACCCAUGUAGGCCAGAAGGCCUUGGGAGAAGGCAGGUCGGCUCG [salish99_ss2_r3_084] (puzzle: Same State 2) | 22.5 | 154 | 241 |  |  | 
6 | GCCCAUAGUAUAUGGAUACAAGCUUUUUGACAUGAGGAUCACCCAUGUACUCGUCUUAUGUGCAGUCCGUAGACUGC [JL-shm-2.20 Brourd mod] (puzzle: Sensor for hsa-mir-208a) | 26.8 | 15.8 |  |  |  | 
7 | UACUGAGUCGUAGGAUAUGUAGGAUAUGGCGAGAGCUAAGCUUGGAAGUCACUUCAGCCAGAAGGACAGAAGGACGACUCUCUC [pwkr ssNG2 2FMN + F9.13] (Eterna round: R96, puzzle: Same State NG 2) |  |  |  | 40 | 273 | 51.1
8 | GUGGUCAGACAUGAGGAUCACCCAUGUGGAAUAAAUAAGGGUUAGGAUAUGGAAUAUAGGAUAUACCAGAAGGGAUGGUUGGUG (Eterna round: R96, puzzle: Same State NG 3) |  |  |  | 123 | 108 | 111
9 | GUUACAUGAGGAUCACCCAUGUAUGUGUGGGAGUAAGUGUCUUAGGAUAUCUAUUAUUUAAUUUAAGAGAAGGAAGAUUGUUGU [JMF's solution 22] (Eterna round: R96, puzzle: Same State NG 3) |  |  |  |  | 82.3 | 
10 | UUAAAACAUGAGGAUCACCCAUGUAAUAAUAUGGGAGGAUAUCAGAAUGUAUGUAUGUAAUGAGAAGGCCUAAAUG [Mat - Same State 1 - Mod of Eli - D77] (puzzle: Same State 1) | 70.4 | 156 | 398 |  |  | 
11 | GGGUGUGGAAGGAAAGAUAGGAAAAGGAAACAUGAGGAUCACCCAUGUGAAGGAAGAAAGGGAGCUCGUCUUAUAAG [JR_SHM208A_Sub001] (puzzle: Sensor for hsa-mir-208a) | 27.4 | 22.8 | 23.5 |  |  | 
12 | GAGUGGCAGUUAGGAUAUGUAGUGAUAAUGAUAACAGAAGGAACAGACAUGAGGAUCACCCAUGUAGGACUAAUCCAGAGAGAG [Parity 35 - Jieux - Same State NG 1] (Eterna round: R96, puzzle: Same State NG 1) |  |  |  | 26.2 | 25.7 | 34.2
13 | UGGUACAUGGGAGGAUAUGGGCAUGAGACAUGAGGAUCACCCAUGUAUUAAAAGCCGAAAGGCAUCUAGAAGGCCCAUGUACCU [JL SSNG1 3.85] (Eterna round: R96, puzzle: Same State NG 2) |  |  |  | 17.1 | 137 | 214
14 | UCAACUUCUUUUAGUGUGUUGCCAGUUUUACAUGAGGAUCACCCAUGUUAAGUAUUGUGGUAUUUUGUUCGUCUUAA [JR_SHM208A_Sub073] (puzzle: Sensor for hsa-mir-208a) | 15.6 | 14.3 | 16.3 |  |  | 
15 | GUAGCAUGCAGCGAGGAUAUUCAUAUUAAAACAUGAGGAUCACCCAUGUAGGCCAAAAGGCCUUGGGAGAAGGCGCACAUGCUAC [Xeonanis - 20] (puzzle: Same State 2) | 31.2 | 527 | 717 |  |  | 
16 | AUAAAACAUGAGGAUCACCCAUGUCAACAAAAUCGAGGAUAUGGACAGACUUCGGUCUGUCCAGAAGGCGAAUAAU [salish99_ss1_r3_100] (Eterna round: R96, puzzle: Same State 1) |  |  |  | 15.1 | 12.7 | 17.4

Row | Sequence | apparent KD of MS2 coat protein [1] [nM] | apparent KD of MS2 coat protein [2] [nM] | apparent KD of MS2 coat protein [3] [nM] | apparent KD of MS2 coat protein (input ligand: FMN 200 uM) [nM] | apparent KD of MS2 coat protein [4] [nM] | apparent KD of MS2 coat protein (input ligand: none) [nM]
17 | CAGCUCGUGUGAGGAUAUGCCGCCGUUUCGGCUGCAGAAGGUGCUACGUUACAUGAGGAUCACCCAUGUCUCUGUUGUUUCGUU [salish99_SSNG1_r04_950] (Eterna round: R96, puzzle: Same State NG 1) |  |  |  |  | 18.2 | 
18 | UGGAGAAAUCAAGGAUAUGCUACCGUUUCGGUAGCAGAAGGUGAUCACAUGAGGAUCACCCAUGUAUGCAUGCGUGAGCGUGCU [JL SSNG1 3.54] (Eterna round: R96, puzzle: Same State NG 1) |  |  |  |  | 12.6 | 
19 | UGAAUAUUCACAGGAUAUGAGUUGUAAAGUGGAUCAGAAGGGUGGGUGUUUUGCACGGUGUGUUACAUGAGGAUCACCCAUGUU [SameState NG1 #24] (Eterna round: R96, puzzle: Same State NG 1) |  |  |  | 205 | 232 | 627
20 | UUAAUGAUGUAAGGAUAUACAUGAGGAAUUCUCGUAGAAGGUACAUGACAUGAGGAUCACCCAUGUAUCGCUCCGUAGAGCGUA [JL SSNG1 1.12] (Eterna round: R96, puzzle: Same State NG 1) |  |  |  | 190 | 119 | 79.7
21 | GUAGCAUACCGAGGAUAUUCAUAUACAUGAGGAUCACCCAUGUUUAGGCCACAUUAGUGGCCUUGGGAGAAGGCGGAAUGCUAC [Xeonanis - 20 Mod44] (Eterna round: R96, puzzle: Same State NG 2) |  |  |  | 13 | 15.7 | 23.4
22 | AAUUAUUCACAUGAGGAUCACCCAUGUGAUAUUAUUAUUACAAGCUUUUUGCUCGUCUUGUUCCUCAGUGAAUAAUU [Default title] (puzzle: Sensor for hsa-mir-208a version 2) | 18.3 | 74.5 | 15.9 |  |  | 
23 | UAGCACUGUCGAGAGGAUAUGCGGUGAUGGACAUGAGGAUCACCCAUGUUAGCGACAGCAUCACGGCAGAAGGCUCUACUGCUGC [Soteed Omei mod 35] (puzzle: Same State 2) | 11.7 | 15.6 | 13.7 |  |  | 
24 | ACUUGCUUUUUGCUCAUCUUAUGUCCGAAACAUGAGGAUCACCCAUGUGUAGAUUAUGUGUUGUUUUUGAUACGUGA [JR_SHM208A_Sub066] (puzzle: Sensor for hsa-mir-208a) | 24.9 | 19 | 26.9 |  |  | 
25 | GCCGCGUUUCGCGCCUACAUGAGGAUCACCCAUGUUUGUAGGCAGGAUAUCGCCCGCUUUGCGGGCGAGAAGGGCUGUUGUGGC [salish99_SSNG3_R04_020] (Eterna round: R96, puzzle: Same State NG 3) |  |  |  | 59 | 38.8 | 55.5
26 | AUAAGACACAUGAGGAUCACCCAUGUGGCCGUAGUCGGCUCACAGGAUAUCAAGCUACUAGUGCUUGAGAAGGGUGAGACAAGC [Raar Mod] (Eterna round: R96, puzzle: Same State NG 3) |  |  |  | 57.3 | 190 | 323
27 | UGUUGUAUUACAGGAUAUCUAUUAUUUGUAUUUAGAGAAGGGUAUUCACAUGAGGAUCACCCAUGUAUAUACGAGGAAGUUGUG [JMF's solution 20] (Eterna round: R96, puzzle: Same State NG 1) |  |  |  |  | 42.4 | 
28 | GGUAUUGACACAGGAUAUGCUUACGAAACGUAAGCAGAAGGGUGAACAUGAGGAUCACCCAUGUAUGUACCAGGGCGUGAGCCC [JL SSNG1 1.74] (Eterna round: R96, puzzle: Same State NG 1) |  |  |  | 169 | 875 | 1880
29 | GUAGCAUGCAGCGAGGAUAUUCAUAUUAAAACAUGAGGAUCACCCAUGUAGGCCAAAAGGCCUUGGGAGAAGGCGCACAUGCUAC [Xeonanis - 20] (Eterna round: R96, puzzle: Same State 2) |  |  |  | 37.8 | 360 | 536
30 | ACUAGAAACGGGCAAUAACACAUGAGGAUCACCCAUGUGACACAGGAUAUAACCAGAUCAGAAAGUUAGAAGGGUGAGCCCGCA [Edraed] (Eterna round: R96, puzzle: Same State NG 3) |  |  |  | 13.2 | 25.9 | 35
31 | GAGUAGUUAAAAGGAUAUUGAUUAUUGUAGGAUCAAGAAGGUUUUAACAUGAGGAUCACCCAUGUAGGACUAUUCCUGUGAAAA [Parity 92 - Jieux - Same State NG 1] (Eterna round: R96, puzzle: Same State NG 1) |  |  |  |  | 10.9 | 
32 | GCGGAGAGGUAAGGAUAUCCAUGGAAGAAACAUGAGGAUCACCCAUGUAGGAAGAAGACUAGGAGGGAGAAGGUACCGGGACGC [AK SSNG2-V2-20.1] (Eterna round: R96, puzzle: Same State NG 2) |  |  |  | 29.2 | 26.2 | 40.5
